Test [1] concerns the target crossbeta H5-0 (dH5-0), H5 of H5N1 strain A/Vietnam/1203/04 stock as supplied by Protein Sciences (influenza virus H5N1 strain A/Vietnam/1203/04). Put plainly: ELISA, immobilized H5 form; normalized to cdH5-0; average of two measurements.
In test [2] the target is misfolded dH5-I (H5 of A/Vietnam/1203/04, heat cycling at pH 7) (influenza virus H5N1 strain A/Vietnam/1203/04). The experiment in a line: ELISA, immobilized H5 form; normalized to cdH5-0.
For test [3], the target named is fdH5-0, ultrafiltrated dH5-0 (H5 of A/Vietnam/1203/04) (influenza virus H5N1 strain A/Vietnam/1203/04). Put plainly: ELISA, immobilized H5 form; normalized to cdH5-0.
Test [4] concerns the target cdH5-0, crossbeta H5 (A/Vietnam/1203/04) after centrifugation (influenza virus H5N1 strain A/Vietnam/1203/04). Put plainly: ELISA, immobilized H5 form; normalized to cdH5-0.
Test [5] deals with misfolded dH5-II (H5 of A/Vietnam/1203/04, heat cycling at pH 2) (influenza virus H5N1 strain A/Vietnam/1203/04). The experiment in a line: ELISA, immobilized H5 form; normalized to cdH5-0.
The target of test [6] is misfolded dH5-III (H5 of A/Vietnam/1203/04, prolonged incubation at 5 C below the melting temperature) (influenza virus H5N1 strain A/Vietnam/1203/04). The experiment in a line: ELISA, immobilized H5 form; normalized to cdH5-0.
Test [7] deals with misfolded dH5-I (H5 of A/Vietnam/1203/04, heat cycling at pH 7) (influenza virus H5N1 strain A/Vietnam/1203/04). The experiment in a line: ELISA epitope scanning, immobilized H5 form; scaled.
Test [8] deals with fdH5-0, ultrafiltrated dH5-0 (H5 of A/Vietnam/1203/04) (influenza virus H5N1 strain A/Vietnam/1203/04). The description is as above.
In test [9] the target is cdH5-0, crossbeta H5 (A/Vietnam/1203/04) after centrifugation (influenza virus H5N1 strain A/Vietnam/1203/04). Described as above.
Test [10] concerns the target crossbeta H5-0 (dH5-0), H5 of H5N1 strain A/Vietnam/1203/04 stock as supplied by Protein Sciences (influenza virus H5N1 strain A/Vietnam/1203/04). The description is as above.
For test [11], the target named is misfolded dH5-II (H5 of A/Vietnam/1203/04, heat cycling at pH 2) (influenza virus H5N1 strain A/Vietnam/1203/04). The test is described as above.
Test [12] has as its target misfolded dH5-III (H5 of A/Vietnam/1203/04, prolonged incubation at 5 C below the melting temperature) (influenza virus H5N1 strain A/Vietnam/1203/04). Described as above.
Test [13] deals with non-treated H5 of H5N1 strain A/Vietnam/1203/04 (nH5), Protein Sciences (influenza virus H5N1 strain A/Vietnam/1203/04). Put plainly: ELISA, coated nH5 overlayed with 1:2000 diluted antibody.
The target of test [14] is fdH5-0, ultrafiltrated dH5-0 (H5 of A/Vietnam/1203/04) (influenza virus H5N1 strain A/Vietnam/1203/04). The experiment in a line: ELISA, immobilized H5 form, tPA with excess epsilon-amino caproic acid.
In test [15] the target is cdH5-0, crossbeta H5 (A/Vietnam/1203/04) after centrifugation (influenza virus H5N1 strain A/Vietnam/1203/04). The test is described as above.
Test [16] deals with crossbeta H5-0 (dH5-0), H5 of H5N1 strain A/Vietnam/1203/04 stock as supplied by Protein Sciences (influenza virus H5N1 strain A/Vietnam/1203/04). Described as above.
Test [17] has as its target misfolded dH5-II (H5 of A/Vietnam/1203/04, heat cycling at pH 2) (influenza virus H5N1 strain A/Vietnam/1203/04). The test is described as above.

Here are results for seven substances from patent US20110052564A1.

Turning to “fourth and fifth finger domain of fibronectin (Fn F4-5) with C-terminal FLAG-tag (from UniProt P02751 184-273)”, the Normalized affinity, kD (%) in test [1] was determined as 103%; in [2] it was 0%; in [3], 69%; in test [4], 100%; in [5], 88%; in test [6], 6%.
Take “Rockland anti-H5 A/VN/1203/04 mouse monoclonal antibody, catalogue number 200-301-975”: the relative affinity kD in [7] worked out at 47 a.u; in [8], 103 a.u; in test [9], 100 a.u; in [10], 102 a.u; in test [11], 79 a.u; in [12], 78 a.u. The same substance came in with an ELISA signal at 1:2000 antibody dilution in [13] of 1.5.
“Rockland anti-H5 A/VN/1203/04 mouse monoclonal antibody, catalogue number 200-301-977”: the relative affinity kD stood at 0 a.u in [7]; 93 a.u in [8]; 100 a.u in test [9]; 98 a.u in test [10]; 0 a.u in test [11]; 35 a.u in test [12].
Turning to “Rockland anti-H5 A/VN/1203/04 mouse monoclonal antibody, catalogue number 200-301-979”, the relative affinity kD is 125 a.u in [7]; 97 a.u in [8]; 100 a.u in test [9]; 103 a.u in [10]; 83 a.u in test [11]; 126 a.u in test [12].
As to “Rockland anti-H5 A/VN/1203/04 mouse monoclonal antibody, catalogue number 200-301-978”, the relative affinity kD in test [7] was 115 a.u; in test [8], 107 a.u; in test [9], 100 a.u; in [10] it was 85 a.u; in test [11], 31 a.u; in test [12] it was 112 a.u.
“Rockland anti-H5 A/VN/1203/04 mouse monoclonal antibody, catalogue number 200-301-976”: the relative affinity kD in test [7] amounted to 0 a.u; in test [8] it was 105 a.u; in test [9] it was 100 a.u; in test [10] it was 88 a.u; in test [11] it was 132 a.u; in test [12] it was 127 a.u.
As to “tissue type plasminogen activator (tPA; Actilyse, Boehringer-Ingelheim) (from UniProt P00750 36-562) (enzyme)”, the Kd was 342 nM in test [14], 102 nM in test [15], 96 nM in test [16] and 19 nM in [17].
